Values joined by “and” are separate entries in the source; they are usually repeats but may differ in a detail not shown here. Equal values may be shown once.
Molecular target: M-CDP04 (αMCL1)
Assay: BLI; biotinylated BCL2 homolog (25 nM) immobilised on streptavidin biosensors, designed protein in solution at defined concentrations; Octet RED96; 10 mM HEPES pH 7.4, 150 mM NaCl, 3 mM EDTA, 0.05% surfactant P20, 0.5% non-fat dry milk; titrations in triplicate, 1:1 binding model
Details: both partners purified

koff: 0.199 s⁻¹ and 0.186 s⁻¹ and 0.148 s⁻¹ and 0.178 s⁻¹ | kon: 5830 M⁻¹ s⁻¹ and 9300 M⁻¹ s⁻¹ and 13200 M⁻¹ s⁻¹ and 9440 M⁻¹ s⁻¹
B1: Bcl-B (natural protein)
chain: ADPLRERTELLLADYLGYCAREPGTPEPAPSTPEAAVLRSAAARLRQIHRSFFSAYLGYPGNRFELVALMADSVLSDSPGPTWGRVVTLVTFAGTLLERGPLVTARWKKWGFQPRLKEQEGDVARDCQRLVALLSSRLMGQHRAWLQAQGGWDGFCHFFRTPFPLA
modifications: biotin (enzymatic, BirA)
